This assay concerns the target Cu^2+-catalyzed oxidized PrP(23–231) (mild condition) (mouse) (UniProt P04925). The assay can be described thus: SEC.

As to “Cu^2+-catalyzed oxidized PrP(23–231) (mild condition) (from UniProt P04925 23-231) (natural protein)”, the percent of total protein in the tetramer band was below 5% and the stoichiometry N (usually the number of molecules, sites or subunits per partner or assembly) turned out to be 4.

(Values after PMC3436581.)
